Target: stratifin (14-3-3 σ) (UniProt P31947)
Test: anti-myc IP, anti-stratifin blot
Details: reference: wild-type Pkp-3-myc; sites S285

binding against the reference: lost
Substance: plakophilin-3 (from UniProt Q9Y446) Pkp-3-myc S285A

Reference: paper PMC3790753
